Results reported in patent publication US20030049796A1.

Target: Recombinant active caspase-9 (catalytic domain) (mammalian) (UniProt P55211)
Assay: cell-based or functional assay

Chain of UniProt P55211 (P55211 139-416 limits assumed): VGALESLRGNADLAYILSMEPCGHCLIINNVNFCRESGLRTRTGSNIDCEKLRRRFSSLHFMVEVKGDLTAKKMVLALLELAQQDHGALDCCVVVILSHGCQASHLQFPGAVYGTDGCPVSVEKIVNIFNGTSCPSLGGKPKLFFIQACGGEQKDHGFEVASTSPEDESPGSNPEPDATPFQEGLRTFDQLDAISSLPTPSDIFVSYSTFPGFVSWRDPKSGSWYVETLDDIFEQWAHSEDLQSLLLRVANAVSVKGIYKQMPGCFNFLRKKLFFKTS

caspase-9 activity: AFC release from Ac-LEHD-AFC (100 uM); 0.2 uM caspase-9, 0.2-1.6 uM BmIAP, 37 C (fold molar excess): 8
Substance: GST-BmIAP (recombinant purified Bombyx mori inhibitor of apoptosis protein, glutathione S-transferase fusion)
